Measured values taken from patent publication US20250326840A1 (QURE BIOTECHNOLOGY SHANGHAI, published 2025).
Where two headings read alike, the source gives them in different places.

Key:
[1] = target: T1, PD-L1-his (QPP09) (human, UniProt Q9NZQ7 19-239, limits assumed); assay: SPR, Biacore 8K
T1 construct: also called human PD-L1; human PD-L1 recombinant protein

[2] = target: T2, PD-L1-mouse Fc protein (human, UniProt Q9NZQ7 19-239, limits assumed); assay: competitive ELISA, PD-1 coated, PD-L1-mouse Fc
[3] = target: T1, PD-L1-his (QPP09); assay: ELISA, PD-L1 captured by coated anti-HIS antibody
[4] = target: T3, Rhesus PD-L1 (rhesus monkey, UniProt F6PJN1 19-239); assay: SPR, Biacore 8K
T3 construct: also called rhesus monkey PD-L1

[5] = target: T1, PD-L1-his (QPP09); assay: SPR, Biacore 8K; remark: listed apart in the source
[6] = target: QP003 (PDL1-his); assay: ELISA, QP003 (PDL1-his) captured on coated anti-his, anti-hFc detection; unit from the x axis Log(Conc.(nM))
[7] = target: T4, human PD-L1 on HCC827 cells (human, UniProt Q9NZQ7 19-290); assay: FACS on HCC827 cells
T4 construct: whole, on cells; also called HCC827 cells naturally expressing human PD-L1

[8] = target: T5, QP098 (cyno SIRPα (I7G9Z7) ECD(E31-R369)-flag-his) (cynomolgus); assay: SPR, Biacore 8K
T5 construct: the construct carries flag and his tags; also called cynoSIRPα (ECD); cynomolgus SIRPα
T5 chain: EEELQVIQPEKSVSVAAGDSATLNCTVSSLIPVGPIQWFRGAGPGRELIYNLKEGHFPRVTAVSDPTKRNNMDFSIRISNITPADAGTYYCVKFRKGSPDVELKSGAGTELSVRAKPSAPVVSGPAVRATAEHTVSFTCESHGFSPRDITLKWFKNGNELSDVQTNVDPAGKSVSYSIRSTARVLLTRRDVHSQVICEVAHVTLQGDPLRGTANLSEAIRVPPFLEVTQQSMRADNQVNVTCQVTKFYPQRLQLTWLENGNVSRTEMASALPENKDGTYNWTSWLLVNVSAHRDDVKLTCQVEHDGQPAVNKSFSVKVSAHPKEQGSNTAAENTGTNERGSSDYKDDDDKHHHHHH

[9] = target: T6, QP271 (rhesus SIRPα1-flag-his T-557-28) (rhesus monkey); assay: SPR, Biacore 8K
T6 construct: also called rhesus monkey SIRPα (QP271); monkeySIRPα1-flag-his
T6 chain: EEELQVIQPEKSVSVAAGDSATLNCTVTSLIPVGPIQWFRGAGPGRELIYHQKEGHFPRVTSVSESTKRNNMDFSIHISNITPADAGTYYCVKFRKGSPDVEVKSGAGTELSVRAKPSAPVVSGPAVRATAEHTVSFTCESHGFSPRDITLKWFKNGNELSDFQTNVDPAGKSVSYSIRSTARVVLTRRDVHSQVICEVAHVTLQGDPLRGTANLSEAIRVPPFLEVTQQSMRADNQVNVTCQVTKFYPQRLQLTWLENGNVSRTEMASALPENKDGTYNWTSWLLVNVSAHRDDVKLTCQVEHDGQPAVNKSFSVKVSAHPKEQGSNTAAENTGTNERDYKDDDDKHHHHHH

[10] = target: T2, PD-L1-mouse Fc protein; assay: blocking ELISA: QP1138 (PD1-FC) coated, PDL1-mouse FC mixed with the antibody, HRP anti-mouse IgG; blocked partner: PD-1; unit from the x axis Log(Conc.(nM))
[11] = target: T2, PD-L1-mouse Fc protein; assay: competitive ELISA, CD80 coated, PD-L1-mouse Fc

T1 sequence (Q9NZQ7 19-239 limits assumed): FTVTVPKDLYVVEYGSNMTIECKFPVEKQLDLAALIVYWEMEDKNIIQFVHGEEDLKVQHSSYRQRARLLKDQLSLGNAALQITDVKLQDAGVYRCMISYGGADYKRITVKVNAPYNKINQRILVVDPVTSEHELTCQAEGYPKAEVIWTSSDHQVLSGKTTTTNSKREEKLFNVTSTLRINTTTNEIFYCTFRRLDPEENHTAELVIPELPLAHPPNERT
T2 sequence (Q9NZQ7 19-239 limits assumed): as above
T4 sequence (Q9NZQ7 19-290): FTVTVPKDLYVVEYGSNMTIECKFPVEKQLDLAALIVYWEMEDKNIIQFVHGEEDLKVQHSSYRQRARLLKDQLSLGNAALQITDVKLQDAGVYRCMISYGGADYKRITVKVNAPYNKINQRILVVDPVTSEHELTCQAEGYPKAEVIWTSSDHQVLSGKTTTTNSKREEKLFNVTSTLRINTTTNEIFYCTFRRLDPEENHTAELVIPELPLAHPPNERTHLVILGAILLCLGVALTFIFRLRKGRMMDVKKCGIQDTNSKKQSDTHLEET
Sequence of QP003 (PDL1-his) (chain, as listed by the source limits assumed): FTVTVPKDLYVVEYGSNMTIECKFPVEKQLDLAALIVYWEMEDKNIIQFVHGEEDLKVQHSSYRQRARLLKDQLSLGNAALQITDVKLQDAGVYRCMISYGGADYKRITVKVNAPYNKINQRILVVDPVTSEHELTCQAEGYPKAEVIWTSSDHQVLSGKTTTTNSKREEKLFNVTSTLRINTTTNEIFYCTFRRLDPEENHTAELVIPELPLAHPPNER

B1: Q-1801 (bispecific antibody, human IgG1, kappa, L234A L235A)
heavy: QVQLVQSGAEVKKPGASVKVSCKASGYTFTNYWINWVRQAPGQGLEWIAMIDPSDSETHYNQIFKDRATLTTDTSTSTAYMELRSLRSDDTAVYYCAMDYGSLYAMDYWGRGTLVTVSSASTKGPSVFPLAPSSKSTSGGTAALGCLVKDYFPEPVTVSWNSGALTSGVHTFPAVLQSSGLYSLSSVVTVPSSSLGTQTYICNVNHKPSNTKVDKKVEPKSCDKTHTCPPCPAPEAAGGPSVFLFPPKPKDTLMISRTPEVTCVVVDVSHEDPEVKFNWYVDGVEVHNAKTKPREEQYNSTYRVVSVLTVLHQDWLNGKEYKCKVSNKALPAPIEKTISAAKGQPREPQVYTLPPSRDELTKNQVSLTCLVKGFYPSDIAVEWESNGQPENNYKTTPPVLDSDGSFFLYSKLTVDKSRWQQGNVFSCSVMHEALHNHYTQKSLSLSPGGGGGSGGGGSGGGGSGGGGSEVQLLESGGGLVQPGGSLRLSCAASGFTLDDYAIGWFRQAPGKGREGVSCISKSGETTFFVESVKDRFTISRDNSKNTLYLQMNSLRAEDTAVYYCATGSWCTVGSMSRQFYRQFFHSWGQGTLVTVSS
light: DIVLTQSPDSLAVSLGERATINCRASQSVRSSGYNWIFWYQQKPGQPPKLLIYLASNRDSGVPDRFSGSGSGTDFTLTISSLQAEDVAVYYCQHSRELPTFGQGTKLEIKRTVAAPSVFIFPPSDEQLKSGTASVVCLLNNFYPREAKVQWKVDNALQSGNSQESVTEQDSKDSTYSLSSTLTLSKADYEKHKVYACEVTHQGLSSPVTKSFNRGEC
notes: Anti-SIRPα VH-CH1-Fc(L234A, L235A, K338A)-(G4S)4-anti-PD-L1 VHH heavy chain; kept as one molecule; also called CHO44; QP32820279
[1]
  Kd: 0.429 nM
  koff: 0.000433 s⁻¹
  kon: 1.01e+06 M⁻¹ s⁻¹
[2]
  IC50: 0.904 nM
[3]
  EC50: 0.122 nM
[4]
  Kd: 0.499 nM
  koff: 0.000779 s⁻¹
  kon: 1.56e+06 M⁻¹ s⁻¹
[5]
  Kd: 0.431 nM
  koff: 0.000433 s⁻¹
  kon: 1.01e+06 M⁻¹ s⁻¹
[6]
  EC50: 0.0307 nM
[7]
  EC50: 0.142 nM
[8]
  Kd: 2.14 nM
  koff: 0.0117 s⁻¹
  kon: 5.46e+06 M⁻¹ s⁻¹
[9]
  Kd: 0.522 nM
  koff: 0.00303 s⁻¹
  kon: 5.81e+06 M⁻¹ s⁻¹
[10]
  IC50: 0.382 nM
[11]
  IC50: 0.742 nM
